# Measurements from patent publication US20050214813A1.
# B1: PSEC0129 (supernatant containing the product expressed from the clone of SEQ ID NO: 3) (protein)
# chain: AFHASAVGLRSSDEQKQQPPNSFSQQHSETQGAEKPDPESSHSPPRYTDQGGEEEEDYESEEQLQHRILTAALEFVPAHGWTAEAIAEGAQVCIGEGGAT
# B2: PSEC0256 (supernatant containing the product expressed from the clone of SEQ ID NO. 9) (protein)
# chain: MAGHSMVLVEILDVNDNVPEVMVTSLSLPVQEDAQVGTVIALISVSDRDSGANGQVICSLTPHVPFKLVSTYKNYYSLVLDSALDRESVSAYELVVTARDGGSPSLWATARVSVEVADVNDNAPAFAQPEYTVFVKENNPPGCHIFTVSAWDADAQKNALVSYSLVERRVGEHALSSYVSVHAESGKVYALQPLDHEELELLQFQVSARDAGVPPLGSNVTLQVFVLDENDNAPALLATPAGSAGGAVSELVPRSVGAGHVVAKVRAVDADSGYNAWLSYELQPAAVGAHIPFHVGLYTGEISTTRILDEADAPRHRLLVLVKDHGEPALTSTATVLVSLVENGQAPKTSSRASVGAVDPEAALVDINVYLIIAICAVSSLLVLTLLLYTALRCSAPPTVSRCAPGKPTLVCSSAVGSWSYSQQRRQRVCSAESPPKTDLMAFSPSLQLSREDCLNPPSEPRQPNPDWRYSASLRAGMHSSVHLEEAGILRAGPGGPDQQWPTVSSATPEPEAGEVSPPVGAGVNSNSWTFKYGPGNPKQSGPGELPDKFIIPGSPAIISIRQEPTNSQIDKSDFITFGKKEETKKKKKKKKGNKTQEKKEKGNSTTDNSDQ
# B3: PSEC0220 (supernatant containing the product expressed from the clone of SEQ ID NO. 5) (protein)
# chain: LWWAVGSPLVMDPTSICRKARRLAGRQAELCQAEPEVVAELARGARLGVRECQFQFRFRRWNCSSHSKAFGRILQQDIRETAFVFAITAAGASHAVTQACSMGELLQCGCQAPRWRAPPRPSGLPGTPGPPGPAGSPEGSAAWEWGGCGDDVDFGDEKSRLFMDARHKRGRGDIRALVQLHNNEAGRLAVRSHTRTECKCHGLSGSCALRTCWQKLPPFREVGARLLERFHGASRVMGTNDGKALLPAVRTLKPPGRADLLYAADSPDFCAPNRRTGSPGTRGRACNSSAPDLSGCDLLCCGRGHRQESVQLEENCLCRFHWCCVVQCHRCRVRKELSLCL
# B4: PSEC0242 (supernatant containing the product expressed from the clone of SEQ ID NO. 7) (protein)
# chain: MMGLGNGRRSMKSPPLVLAALVACIIVLGFNYWIASSRSVDLQTRIMELEGRVRRAAAERGAVELKKNEFQGELEKQREQLDKIQSSHNFQLESVNKLYQDEKAVLVNNITTGERLIRVLQDQLKTLQRNYGRLQQDVLQFQKNQTNLERKFSYDLSQCINQMKEVKEQCEERIEEVTKKGNEAVASRDLSENNDQRQQLQALSEPQPRLQAAGLPHTEVPQGKGNVLGNSKSQTPAPSSEVVLDSKRQVEKEETNEIQVVNEEPQRDRLPQEPGREQVVEDRPVGGRGFGGAGELGQTPQVQAALSVSQENPEMEGPERDQLVIPDGQEEEQEAAGEGRNQQKLRGEDDYNMDENEAESETDKQAALAGNDRNIDVFNVEDQKRDTINLLDQREKRNHTL
# Target: Aβ1-28 consisting of 28 amino acid residues from the N-terminus of Aβ (UniProt P05067)
# Sequence (P05067 672-699): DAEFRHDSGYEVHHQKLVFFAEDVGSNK
# Experiment: cell-based or functional assay
row,"Fluorescence Intensity (thioflavin-T, Aβ1-28 aggregation after 24 hours, relative to the Aβ40-1 control taken as 100%)",Binder
1,24%,B1
2,460%,B2
3,250%,B3
4,16%,B4
